Reference: patent publication US9301917B2, “Sustained-release pharmaceutical composition” (Kyoto University, priority 2010, dated 2016)

What was measured:
[1] = Influence of formulation procedure on drug release rate in vivo (Example 3); conditions: 100 μL to dorsal subcutis of mice, 1 hour; lysozyme 5 mg/mL, sucrose 0.25 M, atelocollagen 3% [w/v]; different mixing orders
Experimental: The following three kinds of ingredients were mixed in different orders and formulated as shown in the following items a) to d): lysozyme (MW: 14 kDa); sucrose; and atelocollagen (product name: KOKEN ATELOCOLLAGEN IMPLANT).
Each of the formulations was prepared so that the final concentrations of lysozyme, sucrose, and atelocollagen were 5 mg/mL, 0.25 M, and 3% [w/v], respectively.
100 μL of each of the formulations according to the above-mentioned items a) to d) were administered to the dorsal subcutis of mice. One hour later, the formulation that underwent gelation at a body temperature was taken out, and the amount of the lysozyme remaining in the gel was measured by HPLC to calculate the release amount of the lysozyme.

[2] = Influence of sugar on drug release from collagen in vitro (Example 1); format: physicochemical; conditions: lysozyme 2 mg/mL, atelocollagen 3% [w/v], sucrose 0.05 M vs no sucrose; PBS external liquid, 37° C., HPLC
Experimental: The influence of a sugar on drug release from a collagen was confirmed through use of lysozyme (final concentration: 2 mg/mL) (Sigma-Aldrich Corporation) as a drug.
Lysozyme was dissolved in a physiological buffer (PBS, pH 7.4) containing sucrose (final concentration: 0.05 M) or a physiological buffer containing no sucrose. After that, the solution and an atelocollagen solution (final concentration: 3% [w/v]) (product name: KOKEN ATELOCOLLAGEN IMPLANT) were mixed and formulated.
Conditions for the measurement were as follows: • Initial eluent: 30% acetonitrile solution containing 0.1% triethylamine (TEA) • Final eluent: concentration-gradient elution with 45% acetonitrile solution containing 0.1% TEA • rate: 1 mL/min • Elution time: 30 minutes • Detection wavelength: 220 nm

## lysozyme
[1]
  release amount of the lysozyme in vivo: varied depending on a change in mixing procedure
[2]
  amount of the lysozyme released into the external liquid: large in the case of containing sucrose as compared to the case of containing no sucrose
